Consider 27 sequences from the supplement of paper PMC9170038.

In this data set the test system is MS2 coat protein. As to the kind of experiment: apparent KD of MS2 coat protein; designed switch direction (-1 OFF switch, 1 ON switch): 1; higher = weaker reporter binding. The procedure, abridged:
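Designed RNA switches with common flanks were made on Illumina chips by stalled E. coli RNA polymerase. Titration with SNAP-549-labelled MS2 coat protein doubled from 0.7 or 1.5 nM up to 3 µM. Apparent KD is each design's median over clusters after curve-fitting normalised fluorescence.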

Setting [1] is: Eterna round: R95, input ligand: FMN 200 uM.
The mark [2] stands for this setting: Eterna round: R95, input ligand: microRNA oligo, concentration not stated.
[3] abbreviates: Eterna round: R95, input ligand: none.
Where [4] appears, read: input ligand: microRNA oligo, concentration not stated.

Consider “AACAAUCUAUCUGAGGAUAUCAUGUAAUAAACAUGAGGAUCACCCAUGUGCAGGAAAACUGCAUAUGAGAAGGCAGAUAGAUUGA [salish99_ss2_r3_030] (puzzle: Same State 2)”, for which the “apparent KD of MS2 coat protein” value was 182 nM under setting [1], 134 nM under setting [2] and 180 nM under setting [3].
As to “AACAAUCUAUCUGAGGAUAUCAUGUCAAAGACAUGAGGAUCACCCAUGUACCAGGAAACUGGUUAUGAGAAGGCAGAUAGAUUGA [SS2: 1115] (Eterna round: R96, puzzle: Same State 2)”, the “apparent KD of MS2 coat protein” value is, setting by setting: (input ligand: FMN 200 uM) 48.2 nM; under setting [4], 596 nM; (input ligand: none) 932 nM.
For the sequence “AACAAUCUAUCUUAGGAUAUCAUGAAAUAAACAUGAGGAUCACCCAUGUGCAGGAAAACUGCAUAUGAGAAGGCAGAUAGAUUGA [salish99_ss2_r3_026] (puzzle: Same State 2)”, the “apparent KD of MS2 coat protein” value under setting [1] came to 593 nM, the “apparent KD of MS2 coat protein” value under setting [2] was 36.2 nM and the “apparent KD of MS2 coat protein” value under setting [3] is 42.2 nM.
As to “AACAUGUGGUGUCACAUGAGGAUCACCCAUGUGGUAAAAGCUGAGGAUAUAAAGAGAAACAUGAAUUAGAAGGUAGGAUCACAA [AK SSNG3-V2-19] (Eterna round: R96, puzzle: Same State NG 3)”, the “apparent KD of MS2 coat protein” value runs as follows: (input ligand: FMN 200 uM) 177 nM; under setting [4], 138 nM; (input ligand: none) 127 nM.
As for “AACUAUCUAUCUCAGGAUAUCAUGUCAAAGACAUGAGGAUCACCCAUGUACCAGGAAACUGGUUAUGAGAAGGGAGAUAGAUAGG [Mat - Same State 2 - Mod - D42] (puzzle: Same State 2)”, the “apparent KD of MS2 coat protein” value is, setting by setting: under setting [1], 193 nM; under setting [2], 64.8 nM; under setting [3], 68.3 nM.
On to “AAGCUCGUGUGAGGAUAUGCCGCCGUUUCGGCUGCAGAAGGUGCUACGUUACAUGAGGAUCACCCAUGUCUCUGUUGUUUCGUU [salish99_SSNG1_r04_951] (Eterna round: R96, puzzle: Same State NG 1)”, for which the “apparent KD of MS2 coat protein” value was 18.7 nM (input ligand: FMN 200 uM), 15.9 nM under setting [4] and 20.8 nM (input ligand: none).
For the sequence “AAGUAACAUGAGGAUCACCCAUGUGAGGUGAGCGUAGGAUAUCGAGAAGGAAGGGUGGAGCGAGAAGGACGAAGGA [JR_SS1_Sub0102] (puzzle: Same State 1)”, the “apparent KD of MS2 coat protein” value was 349 nM under setting [1], 192 nM under setting [2] and 501 nM under setting [3].
The like results for “AAGUAACAUGAGGAUCACCCAUGUGAGGUGAGCGUAGGAUAUCGAGGAGGAAGGGUGGAGCGAGAAGGACGAGAAG [JR_SS1_Sub097] (puzzle: Same State 1)” were, in that order, 114 nM, 262 nM and 402 nM.
On to “AAGUUAAGCUUUUUGUUCUGCCUAUUCUGACAUGAGGAUCACCCAUGUGGUCGAACGACUACGUGUGUAGUUGAGAU [JR_SHM208A_Sub030] (Eterna round: R96, puzzle: Sensor for hsa-mir-208a)”, for which the “apparent KD of MS2 coat protein” value runs as follows: (input ligand: FMN 200 uM) 493 nM; under setting [4], 341 nM; (input ligand: none) 550 nM.
Regarding “AAGUUAAGCUUUUUGUUCUGCCUAUUCUGACAUGAGGAUCACCCAUGUGGUCGAACGACUACGUGUGUAGUUGAGAU [JR_SHM208A_Sub030] (puzzle: Sensor for hsa-mir-208a)”, the “apparent KD of MS2 coat protein” value reads like this: under setting [1], 174 nM; under setting [2], 252 nM; under setting [3], 278 nM.
Turning to “AAUUAAUUAAUACAUGAGGAUCACCCAUGUAAUUAUUAGAUCAAGGAUAUCAGCUCGAAUAGAGCUGAGAAGGUGAUCACAUGU [SSNG3/18-A1] (Eterna round: R96, puzzle: Same State NG 3)”, under setting [4], the “apparent KD of MS2 coat protein” value turned out to be 259 nM.
The same measure, in the same setting: as for “AAUUAAUUAAUUAAUAUACAUGAGGAUCACCCAUGUAAGAUCAAGGAUAUCAGCUCGAUUAGAGCUGAGAAGGUGAUCACAUGU [SSNG3/16-A2] (Eterna round: R96, puzzle: Same State NG 3)”, the figure is 207 nM.
Regarding “ACAAAGAACACAGGAUAUCGGAAAGGAAGUGUACGAGAAGGGUGGUCAACAGUACAUGAGGAUCACCCAUGUGGUGGAUGGCAA [PowerStrip SSNG 1.12] (Eterna round: R96, puzzle: Same State NG 1)”, the “apparent KD of MS2 coat protein” value reads like this: (input ligand: FMN 200 uM) 177 nM; under setting [4], 2.42 nM; (input ligand: none) 1440 nM.
Regarding “ACAAGACAUGAGGAUCACCCAUGUAUAAAUUACACAGGAUAUCGGCGGACCGCACCCGCACGAGAAGGGUGACUUC [Eszaleer] (puzzle: Same State 1)”, the “apparent KD of MS2 coat protein” value by setting is: under setting [1], 472 nM; under setting [2], 34.1 nM; under setting [3], 24.7 nM.
For “ACAAGCUUUUCUGUAUUGAAAGGUGGGAUACAUGAGGAUCACCCAUGUUUUUUUGAAAAUAAUAUUCCUCGUCUUAU [JR_SHM208A_Sub091] (puzzle: Sensor for hsa-mir-208a)” the same measures were 51.5 nM, 33.1 nM and 47.1 nM.
Take “ACACUCCGUGGAGGAUAUGGGCCUGCCCGGGAUACCGGGCCUAACACAUGAGGAUCACCCAUGUCCCAGAAGGCCGCUGGAGCC [Enenala] (Eterna round: R96, puzzle: Same State NG 2)”: the “apparent KD of MS2 coat protein” value reads like this: (input ligand: FMN 200 uM) 26.2 nM; under setting [4], 55.7 nM; (input ligand: none) 120 nM.
The like results for “ACAUGAGAACGAGGAUAUUUUGUACCUACAUGUGACAUGAGGAUCACCCAUGUGGUAAGUAUGAGAAAGAAGGCGUAGAUAUGU [Equivalence 14 - Jieux - Same State NG 2] (Eterna round: R96, puzzle: Same State NG 2)” were, in that order, 21.9 nM, 30.6 nM and 29 nM.
Take “ACAUGAGACCAAGGAUAUUUUGUACCUACAUGUGACAUGAGGAUCACCCAUGUGGUAAGUAUGAGAAAGAAGGUGGAGAUAUGU [Equivalence 22 - Jieux - Same State NG 2] (Eterna round: R96, puzzle: Same State NG 2)”: the “apparent KD of MS2 coat protein” value (input ligand: FMN 200 uM) turned out to be 22.8 nM, the “apparent KD of MS2 coat protein” value under setting [4] turned out to be 22.5 nM and the “apparent KD of MS2 coat protein” value (input ligand: none) came out at 37 nM.
For “ACAUGAGACGGAGGAUAUCUUGUACCUACAUGUGACAUGAGGAUCACCCAUGUGGUAAGUAUGAUAGAGAAGGCCGAGAUAUGU [Equivalance 57 - Jieux - Same State NG 2] (Eterna round: R96, puzzle: Same State NG 2)” the same measures were 16.1 nM, 15 nM and 25.4 nM.
As for “ACAUGAGACUGAGGAUAUGUUGUACCUACAUGUGACAUGAGGAUCACCCAUGUGGUAAGUAUGAUACAGAAGGCAGAGAUAUGU [Equivalance 63 - Jieux - Same State NG 2] (Eterna round: R96, puzzle: Same State NG 2)”, the “apparent KD of MS2 coat protein” value runs as follows: (input ligand: FMN 200 uM) 14.2 nM; under setting [4], 14.5 nM; (input ligand: none) 22.1 nM.
In the case of “ACAUGAGAUCUAGGAUAUAUUGUACCUACAUGUGACAUGAGGAUCACCCAUGUGGUAAGUAUGACAUAGAAGGAGAAGAUAUGU [Equivalance 95 - Jieux - Same State NG 2] (Eterna round: R96, puzzle: Same State NG 2)”, the “apparent KD of MS2 coat protein” value under setting [4] was 53.9 nM.
As for “ACAUGAGAUGGAGGAUAUGUUGUACCUACAUGUGACAUGAGGAUCACCCAUGUGGUAAGUAUGAUACAGAAGGCCAAGAUAUGU [Equivalance 59 - Jieux - Same State NG 2] (Eterna round: R96, puzzle: Same State NG 2)”, the “apparent KD of MS2 coat protein” value is, setting by setting: (input ligand: FMN 200 uM) 16.5 nM; under setting [4], 15.8 nM; (input ligand: none) 27.2 nM.
The like results for “ACAUGAGAUUGAGGAUAUAUUGUACCUACAUGUGACAUGAGGAUCACCCAUGUGGUAAGUAUGACAUAGAAGGCAGAGAUAUGU [Equivalance 84 - Jieux - Same State NG 2] (Eterna round: R96, puzzle: Same State NG 2)” were, in that order, 67.7 nM, 107 nM and 75.3 nM.
For “ACAUUUAGCUCUUGCACAUGAGGAUCACCCAUGUUCAGUUCACAGGAUAUCUAGUCAAACGGAUCGGAGAAGGGUGGCAGGAGC [Erquzaa] (Eterna round: R96, puzzle: Same State NG 3)” the same measures were 86.3 nM, 185 nM and 294 nM.
In the case of “ACCCAAAGUAUAUGGGAACAAGCUUUUUAACAUGAGGAUCACCCAUGUACUCGUCUUGUAAGCAGUCGAAAGACUGC [Sensor 100 - 1] (puzzle: Sensor for hsa-mir-208a)”, the “apparent KD of MS2 coat protein” value was 312 nM under setting [1], 17.4 nM under setting [2] and 368 nM under setting [3].
For “ACGCAGCUGGGUGAGGAUAUCGGUGGUAAAACAUGAGGAUCACCCAUGUCCGAAGCUCGGACCUCCGAGAAGGCGCCCGGCUGCG [Soinraesar Omei Mod 1] (puzzle: Same State 2)” the same measures were 5.47 nM, 5.25 nM and 5.11 nM.
In the case of “ACGUGGACGAAAGUCCACGAAUAAGACGAACAUGAGGAUCACCCAUGUGAGGCGAGCUUUUUGUUCGUCUUAUAAAA [Mat - Sensor - Mod - D116] (Eterna round: R96, puzzle: Sensor for hsa-mir-208a)”, the “apparent KD of MS2 coat protein” value was determined as 73.1 nM (input ligand: FMN 200 uM), 32.1 nM under setting [4] and 22.6 nM (input ligand: none).
